Literature values as cited in PMC3711752.

Target: EGF receptor (Homo sapiens) (UniProt P00533)

Sequence of EGF (P01133 971-1023): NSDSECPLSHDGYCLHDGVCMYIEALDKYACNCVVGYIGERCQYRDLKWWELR

In the case of EGF (from UniProt P01133), the Kd is given as 3 nM.
